The text below walks through data of patent US20220144961A1 (XYENCE THERAPEUTICS, published 2022).

For orientation: EC50 (read off the curve) means the concentration that produces a half-maximal response. A low value points to a more potent agent. Broadly, the Kd is the free concentration of one partner at which half of the binding sites on the other are occupied at equilibrium, for simple one-to-one binding. Higher therefore signals lower affinity.

Positions count from the first letter of the chain named.

First the molecules themselves.
B1: TP25 (antibody, V domains shown)
VH: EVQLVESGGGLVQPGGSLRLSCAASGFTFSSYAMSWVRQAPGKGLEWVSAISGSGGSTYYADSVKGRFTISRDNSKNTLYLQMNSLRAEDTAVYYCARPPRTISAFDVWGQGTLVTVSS
VL: QSVVTQPPSVSGAPGQRVTISCTGSSSNIGAGYDVHWYQQLPGTAPKLLIYGNSNRPSGVPDRFSGSKSGTSASLAITGLQAEDEADYYCQSYDSSLSGYVFGTGTKVTVL
B2: TP6 (antibody, V domains shown)
VH: QVQLVESGGGVVQPGRSLRLSCAASGFTFSSYAMHWVRQAPGKGLEWVAVISYDGSNKYYADSVKGRFTISRDNSKNTLYLQMNSLRAEDTAVYYCARGYQGGYSNFDLWGQGTLVTVSS
VL: DIQMTQSPSTLSASVGDRVTITCRASQSISSWLAWYQQKPGKAPKLLIYDASSLESGVPSRFSGSGSGTDFTLTISSLQPEDFATYYCQQSYSTPYTFGQGTKLEIK
notes: also called TP06
B3: TP23 (antibody, V domains shown)
VH: QVQLVQSGAEVKKPGASVKVSCKASGYTFTSYGISWVRQAPGQGLEWMGWISAYNGNTNYAQKLQGRVTMTTDTSTSTAYMELRSLRSDDTAVYYCARGGAGHYDYFDYWGQGTLVTVSS
VL: B1 VL
B4: TP29 (antibody, V domains shown)
VH: EVQLVESGGGVVQPGRSLRLSCAASGFTFSNAWMSWVRQAPGKGLEWVSAISGSGGSTYYADSVKGRFTISRDNSKNTLYLQMNSLRAEDTAVYYCARRALSLSYFDYWGQGTLVTVSS
VL: B1 VL
B5: TP11 (antibody, V domains shown)
VH: QVQLVESGGGVVQPGRSLRLSCAASGFTFSSYAMHWVRQAPGKGLEWVAVISYDGSNKYYADSVKGRFTISRDNSKNTLYLQMNSLRAEDTAVYYCARGVSGSYARGFDVWGQGTLVTVSS
VL: B2 VL with D70E, Y96W, L104V
B6: TP10 (antibody, V domains shown)
VH: QVQLVESGGGVVQPGRSLRLSCAASGFTFSSYAMHWVRQAPGKGLEWVAVISYDGSNKYYADSVKGRFTISRDNSKNTLYLQMNSLRAEDTAVYYCARSGRATSYSYYGMDVWGQGTLVTVSS
VL: not shown
B7: TP31 (antibody, V domains shown)
VH: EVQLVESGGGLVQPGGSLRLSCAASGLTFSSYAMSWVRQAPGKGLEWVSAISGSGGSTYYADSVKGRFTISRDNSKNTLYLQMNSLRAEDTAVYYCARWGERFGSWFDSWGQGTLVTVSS
VL: B1 VL
B8: TP22 (antibody, V domains shown)
VH: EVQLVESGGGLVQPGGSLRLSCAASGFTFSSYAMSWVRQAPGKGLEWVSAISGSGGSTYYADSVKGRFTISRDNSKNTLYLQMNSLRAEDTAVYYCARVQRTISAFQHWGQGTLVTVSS
VL: B1 VL
notes: Clone of the screen
B9: TP21 (antibody, V domains shown)
VH: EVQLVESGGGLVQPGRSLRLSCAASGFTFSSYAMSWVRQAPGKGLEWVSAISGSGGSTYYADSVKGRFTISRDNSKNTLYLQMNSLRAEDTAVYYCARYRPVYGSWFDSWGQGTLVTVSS
VL: B1 VL
notes: Clone of the screen
B10: TP28 (antibody, V domains shown)
VH: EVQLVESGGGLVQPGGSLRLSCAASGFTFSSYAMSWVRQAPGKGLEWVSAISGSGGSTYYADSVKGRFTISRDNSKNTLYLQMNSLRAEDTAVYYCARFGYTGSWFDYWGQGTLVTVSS
VL: B1 VL with N53K
notes: Clone of the screen
B11: TP17 (antibody, V domains shown)
VH: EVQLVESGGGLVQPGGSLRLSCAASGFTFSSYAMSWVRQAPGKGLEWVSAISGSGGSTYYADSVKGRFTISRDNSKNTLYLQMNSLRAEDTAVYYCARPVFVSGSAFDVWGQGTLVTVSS
VL: B1 VL
notes: Clone of the screen
B12: TP1 (antibody, V domains shown)
VH: QVQLVESGGGVVQPGRSLRLSCAASGFTFSSYAMHWVRQAPGKGLEWVAVISYDGSNKYYADSVKGRFTISRDNSKNTLYLQMNSLRAEDTAVYYCARAGSSGYAYYGMDVWGQGTLVTVSS
VL: not shown
notes: Clone of the screen; also called TP01
B13: TP9 (antibody, V domains shown)
VH: B2 VH with G99A, Y100V, Q101P, G102Y, G103V, S105Y, N106G, F107M, L109V
VL: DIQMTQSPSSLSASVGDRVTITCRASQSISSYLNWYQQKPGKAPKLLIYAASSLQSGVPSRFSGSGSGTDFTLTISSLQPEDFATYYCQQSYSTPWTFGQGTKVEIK
notes: Clone of the screen; also called TP09
B14: TP5 (antibody, V domains shown)
VH: QVQLVESGGGVVQPGRSLRLSCAASGFTFSSYAMHWVRQAPGKGLEWVAVISYDGSNKYYADSVKGRFTISRDNSKNTLYLQMNSLRAEDTAVYYCARVFYGYAPFDVWGQGTLVTVSS
VL: B2 VL with D70E, E81D
notes: Clone of the screen; also called TP05
B15: TP15 (antibody, V domains shown)
VH: B3 VH with T74E, R84S, D89E
VL: QSVLTQPPSVSAAPGQKVTISCSGSSSNIGNNYVSWYQQLPGTAPKLLIYDNNKRPSGIPDRFSGSNSGNTATLTISGTQAMDEADYYCQAWDSSTAWVFGGGTKLTVL
notes: Clone of the screen
B16: TP24 (antibody, V domains shown)
VH: B14 VH with V99P, F100V, Y101R, G102T, Y103I, A104S, P105A
VL: QSVVTQPPSVSGAPGQRVTISCTGSSSNIGAGYDVHWYQQLPGTAPKLLIYGNSNRPSGVPDRFSGSKSGTSASLAITGLQAEDEADYYCGTWDSSLSAGYVFGTGTKVTVL
notes: Clone of the screen
B17: TP14 (antibody, V domains shown)
VH: QVQLVQSGAEVKKPGASVKVSCKASGYTFTSYYMHWVRQAPGQGLEWMGIINPSGGSTSYAQKFQGRVTMTRDTSTSTVYMELSSLRSEDTAVYYCARYDHAGGTPFDLWGQGTLVTVSS
VL: QSVLTQPPSVSAAPGQKVTISCSGSSSNIGNNYVSWYQQLPGTAPKLLIYGNSNRPSGVPDRFSGSKSGTSASLAITGLQAEDEADYYCQSYDSSLSGYVFGTGTKVTVL
notes: Clone of the screen

The target of one experiment is T1, human CD27 (human, UniProt P26842 21-192, limits assumed).
T1 construct: The construct (soluble form, tags) is not described; also called TNFRSF7
T1 sequence (P26842 21-192 limits assumed): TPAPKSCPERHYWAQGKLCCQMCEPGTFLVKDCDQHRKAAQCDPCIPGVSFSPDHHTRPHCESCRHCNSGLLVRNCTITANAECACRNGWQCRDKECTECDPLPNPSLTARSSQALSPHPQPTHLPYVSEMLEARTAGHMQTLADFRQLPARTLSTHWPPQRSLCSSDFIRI
The experiment can be described thus: mAb titration on human CD27, OD readout.
As for B1, the “EC50 (read off the curve)” value was around 0.1 nM.

As for B2, the “EC50 (read off the curve)” value was around 0.3 nM.

A further experiment deals with T2, mouse CD27 (mouse, UniProt P41272 24-182, limits assumed).
T2 construct: The construct is not described; also called murine CD27
T2 sequence (looked up): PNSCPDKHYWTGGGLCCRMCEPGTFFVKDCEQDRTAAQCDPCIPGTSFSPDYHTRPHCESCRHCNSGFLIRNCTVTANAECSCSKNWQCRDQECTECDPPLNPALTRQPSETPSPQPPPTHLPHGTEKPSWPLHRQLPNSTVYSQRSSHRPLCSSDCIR
The experiment can be described thus: Kd table for the mAb titration on mouse CD27 (OD readout, Figure 4 B); method not given.
B3 came in with a Kd of 40 nM.

With B4, the Kd stood at 0.7 nM. Against the preceding molecule, the Kd is about 57-fold lower.

Regarding B2, the Kd came to 8 nM.

In the case of B5, the Kd was 0.5 nM.

Molecule B6 showed a Kd of 0.9 nM.

The next experiment deals with T1, human CD27. In words: Kd table for the mAb titration on human CD27 (OD readout, Figure 4 A); method not given.
In turn, B3 displayed a Kd of 5 nM.

Take B1: the Kd was determined as 0.1 nM.

With B7, the Kd was 1.4 nM.

Regarding B4, the Kd was determined as 0.3 nM. This Kd lies about 4.7-fold lower than the previous one.

With B2, the Kd is 0.6 nM.

For B5, binding was characterised by a dissociation constant (Kd) of 0.2 nM.

B6: the Kd stood at 0.4 nM.

In another experiment the target is T2, mouse CD27. In words: screen of individual clones, heat map of log (Binding MFI), mouse CD27 at 25 nM.
Take B8: the binding result is listed as “binds”.

For another experiment, the target named is T1, human CD27. The experiment can be described thus: screen of individual clones, heat map of log (Binding MFI), human CD27 at 25 nM.
As to B9, the binding result is “binds”.

Regarding B8, the binding result is on record as “binds”.

Regarding B10, the binding result is reported as “binds”.

Regarding B11, the binding result is listed as “binds”.

For the molecule B12, the binding result was “binds”.

With B13, the binding result was “binds”.

With B14, the binding result was “binds”.

B15: the binding result was “binds”.

B16: the binding result is given as “binds”.

Take B17: the binding result is given as “binds”.
